Values of other authors, collected in patent publication US20190351024A1, “IMMUNOCYTOKINES WITH PROGRESSIVE ACTIVATION MECHANISM” (PHILOGEN S.p.A., priority 2016, published 2019).

Details: past clinical trials; cited from earlier work

For TNF-α, the maximum tolerated dose is given as 150-300 μg/m^2/day.
